Measurements as given in paper PMC12677587, “UHRF1 Controls the Timing of RAD51 Removal During DNA Damage Repair Through Suppressing RFWD3” (Advanced Science, 2025).

Legend:
[1] = target: RAD51 (UniProt Q06609); assay: co-IP of FLAG-UHRF1 and RAD51-HA; conditions: reference: wild type; sites S661
[2] = target: T1, His-UHRF1 (UniProt Q96T88-1 1-793); assay: pull-down; GST pull-down: purified GST-RFWD3 on Glutathione resin, purified His-tagged UHRF1 proteins, 3 h at 4 °C in BCA buffer (20 mM Tris-HCl pH 7.4, 100 mM NaCl); washes with 300 mM NaCl; western blotting; conditions: both partners purified
T1 construct: UHRF1; last residue R793; source: E. coli BL21(DE3), purified (Ni-NTA agarose)
T1 sequence (looked up): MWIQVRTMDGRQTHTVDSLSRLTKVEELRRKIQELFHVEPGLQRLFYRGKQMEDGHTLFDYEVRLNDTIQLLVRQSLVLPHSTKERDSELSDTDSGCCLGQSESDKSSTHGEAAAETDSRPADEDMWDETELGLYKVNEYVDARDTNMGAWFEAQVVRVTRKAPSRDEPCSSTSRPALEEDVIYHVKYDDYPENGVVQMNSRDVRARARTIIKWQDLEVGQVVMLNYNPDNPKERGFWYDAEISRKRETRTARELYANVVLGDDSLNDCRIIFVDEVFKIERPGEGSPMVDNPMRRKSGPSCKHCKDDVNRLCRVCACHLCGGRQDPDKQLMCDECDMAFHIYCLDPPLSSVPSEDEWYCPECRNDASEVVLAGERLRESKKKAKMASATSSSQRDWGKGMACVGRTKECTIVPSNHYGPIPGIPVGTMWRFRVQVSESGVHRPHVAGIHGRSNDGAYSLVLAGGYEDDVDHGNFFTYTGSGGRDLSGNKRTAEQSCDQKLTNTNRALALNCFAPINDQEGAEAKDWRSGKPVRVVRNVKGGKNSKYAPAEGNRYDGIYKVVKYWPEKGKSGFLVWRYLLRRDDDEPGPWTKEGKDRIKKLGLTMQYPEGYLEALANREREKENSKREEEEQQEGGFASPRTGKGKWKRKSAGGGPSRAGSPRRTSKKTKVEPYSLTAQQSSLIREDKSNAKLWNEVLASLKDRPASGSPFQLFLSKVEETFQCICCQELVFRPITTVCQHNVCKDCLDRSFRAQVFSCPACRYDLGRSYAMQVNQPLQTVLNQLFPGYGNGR

[3] = target: T1, His-UHRF1; assay: pull-down; GST pull-down: GST-RFWD3 on Glutathione resin precipitating His-UHRF1 with His-RAD51 or His-RAD51^R254Q added; His-tagged proteins detected by western blotting; conditions: both partners purified
[4] = target: T2, GST-UHRF1 (UniProt Q96T88-1 1-793); assay: pull-down; His pull-down: purified His-RAD51 on Ni-chelated beads, GST-UHRF1 with increasing amounts of GST-RFWD3; Binding Buffer A (50 mM Tris-HCl pH 7.5-8.0, 50 mM NaCl), washes with 20 mM imidazole; western blotting; conditions: both partners purified
T2 construct: UHRF1; source: E. coli BL21(DE3), purified (Glutathione resin)
T2 sequence (looked up): T1 sequence (looked up)

In the case of UHRF1 (from UniProt Q96T88) S661A, the “binding against the reference” value [1] is reported as “stronger”.

B1: GST-RFWD3 (natural protein, UniProt Q6PCD5 1-774, looked up)
chain: MAHEAMEYDVQVQLNHAEQQPAPAGMASSQGGPALLQPVPADVVSSQGVPSILQPAPAEVISSQATPPLLQPAPQLSVDLTEVEVLGEDTVENINPRTSEQHRQGSDGNHTIPASSLHSMTNFISGLQRLHGMLEFLRPSSSNHSVGPMRTRRRVSASRRARAGGSQRTDSARLRAPLDAYFQVSRTQPDLPATTYDSETRNPVSEELQVSSSSDSDSDSSAEYGGVVDQAEESGAVILEEQLAGVSAEQEVTCIDGGKTLPKQPSPQKSEPLLPSASMDEEEGDTCTICLEQWTNAGDHRLSALRCGHLFGYRCISTWLKGQVRKCPQCNKKARHSDIVVLYARTLRALDTSEQERMKSSLLKEQMLRKQAELESAQCRLQLQVLTDKCTRLQRRVQDLQKLTSHQSQNLQQPRGSQAWVLSCSPSSQGQHKHKYHFQKTFTVSQAGNCRIMAYCDALSCLVISQPSPQASFLPGFGVKMLSTANMKSSQYIPMHGKQIRGLAFSSYLRGLLLSASLDNTIKLTSLETNTVVQTYNAGRPVWSCCWCLDEANYIYAGLANGSILVYDVRNTSSHVQELVAQKARCPLVSLSYMPRAASAAFPYGGVLAGTLEDASFWEQKMDFSHWPHVLPLEPGGCIDFQTENSSRHCLVTYRPDKNHTTIRSVLMEMSYRLDDTGNPICSCQPVHTFFGGPTCKLLTKNAIFQSPENDGNILVCTGDEAANSALLWDAASGSLLQDLQTDQPVLDICPFEVNRNSYLATLTEKMVHIYKWE
notes: RFWD3 (ring finger and WD repeat domain 3); source: E. coli BL21(DE3), purified (Glutathione resin)
B1: binds [2].

B2: His-RAD51 (natural protein, UniProt Q06609 1-339, looked up)
chain: MAMQMQLEANADTSVEEESFGPQPISRLEQCGINANDVKKLEEAGFHTVEAVAYAPKKELINIKGISEAKADKILAEAAKLVPMGFTTATEFHQRRSEIIQITTGSKELDKLLQGGIETGSITEMFGEFRTGKTQICHTLAVTCQLPIDRGGGEGKAMYIDTEGTFRPERLLAVAERYGLSGSDVLDNVAYARAFNTDHQTQLLYQASAMMVESRYALLIVDSATALYRTDYSGRGELSARQMHLARFLRMLLRLADEFGVAVVITNQVVAQVDGAAMFAADPKKPIGGNIIAHASTTRLYLRKGRGETRICKIYDSPCLPEAEAMFAINADGVGDAKD
notes: RAD51 recombinase; also called purified RAD51; source: E. coli BL21(DE3), purified (Ni-NTA agarose)
B2: binds [3]; binds [4].
